Series [1] has as its system P37277. Briefly: anion-exchange chromatography; DDM-solubilised thylakoid membranes (2 mg chl) on DEAE, MgSO4 gradient, 0.04% DDM; A700 peak areas of the PSI trimer and PSI monomer fractions; cells grown under standard conditions (GL); WT and ORR1 strains. To be noted: other: anion-exchange chromatography.
The subject of series [2] is P37277. Briefly: anion-exchange chromatography; DDM-solubilised thylakoid membranes (2 mg chl) on DEAE, MgSO4 gradient, 0.04% DDM; A700 peak areas of the PSI trimer and PSI monomer fractions; cells grown under increased photon flux (FL); WT and ORR1 strains. The conditions noted are these: other: anion-exchange chromatography.
The target in series [3] is photosystem I (PSI) reaction center (Synechocystis sp. PCC 6803 (endogenous in S. 6803 cells)) (UniProt P37277). Briefly: anion-exchange chromatography; DDM-solubilised thylakoid membranes (2 mg chl) on DEAE, MgSO4 gradient, 0.04% DDM; A700 peak areas of the PSI trimer and PSI monomer fractions; cells grown under standard conditions (GL); WT and ORR1 strains.
Series [4] shares this target. The series is described as follows: native gel or EMSA; BN-PAGE, 4-16% Bis/Tris gels, of PSI fractions isolated by anion-exchange chromatography (or sucrose gradients), 0.04% DDM; bands compared to literature; WT and ORR1 cells, GL or FL.
The target is the same in series [5]. The series is described as follows: anion-exchange chromatography; DDM-solubilised thylakoid membranes (2 mg chl) on DEAE, MgSO4 gradient, 0.04% DDM; A700 peak areas of the PSI trimer and PSI monomer fractions; cells grown under increased photon flux (FL); WT and ORR1 strains.

Sequence of photosystem I (PSI) reaction center (P37277 whole entry, looked up): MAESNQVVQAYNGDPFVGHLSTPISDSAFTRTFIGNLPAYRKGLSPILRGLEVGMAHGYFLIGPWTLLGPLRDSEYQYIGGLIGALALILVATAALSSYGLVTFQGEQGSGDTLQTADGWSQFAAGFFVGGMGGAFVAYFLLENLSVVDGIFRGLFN

As for photosystem I (PSI) reaction center, in the series with P37277 [1], the Monomer (% of total PSI), ORR1 strain (% of total PSI) turned out to be 18 and the Monomer (% of total PSI), WT strain (% of total PSI) amounted to 14. Besides, in the series on P37277 [2], the Monomer (% of total PSI), ORR1 strain (% of total PSI) was 34 and the Monomer (% of total PSI), WT strain (% of total PSI) was 10.
In series [3], “photosystem I (PSI) reaction center (from UniProt P37277 1-157) (complex)” yielded a Monomer : trimer (A700 peak areas), ORR1 strain of 0.23; a Monomer : trimer (A700 peak areas), WT strain of 0.17; a Trimer : monomer (A700 peak areas), ORR1 strain of 4.6; a Trimer : monomer (A700 peak areas), WT strain of 6.3. Further, the stoichiometry N (commonly a count of units in the complex or per binding partner) in series [4] came to 3. Besides, in series [5], the Monomer : trimer (A700 peak areas), ORR1 strain came to 0.53; the Monomer : trimer (A700 peak areas), WT strain was found to be 0.11; the Trimer : monomer (A700 peak areas), ORR1 strain is 2; the Trimer : monomer (A700 peak areas), WT strain was 9.2.

The record behind these values is paper PMC9109680.
